# From patent publication US20040001839A1, “Multimers - isolated molecules comprising epitopes containing sulfated moieties, antibodies to such epitopes, and uses thereof” (priority 2000, published 2004)
# Columns and labels:
# Jurkat cells = experiment: FACS binding to Jurkat cells (IgG-Y1, scFv-Y1, diabodies, triabodies); parameters: species or system human; details: 1 μg scFv-Y1 versus 5 ng IgG-Y1, two-step staining
# Method: Binding experiments were performed to determine the level of binding of the IgG-Y1 molecule compared to the binding level of the scFv-Y1 molecule. A two-step staining procedure was employed, wherein 5 ng of IgG-Y1 were reacted with both RAJI cells (negative control, FIG. 44) and Jurkat cells (Y1 positive cells, FIG. 44). For detection, PE-labeled goat anti-human IgG was used. Similarly, 1 μg of scFv-Y1 was reacted with Jurkat cells (FIG. 44), and PE-labeled rabbit anti-scFv was used for detection.
# FACS analysis was performed on Jurkat cells using a “three step staining procedure.” First, crude extracts or purified unlabeled scFv are stained, then mouse anti-myc antibodies, and finally, FITC- or PE-conjugated anti-mouse antibodies. FACS analysis requires 5-8×10^5 cells, which have been Ficoll-purified and resuspended in PBS+1% BSA. Binding was carried out for 1 hour at 4° C. After each step, cells were washed and resuspended in PBS+1% BSA. After the final staining step, cells were fixed by re-suspending in PBS, 1% BSA, 2% formaldehyde, and then read by FACS (Becton-Dickinson).
# The binding of Y1-scFv was compared to that of diabodies and triabodies.
# [1] = tested on: platelet-rich-plasma (PRP); experiment: Ristocetin-induced aggregation of platelet-rich plasma (scFv); type: cell-based, human; details: scFv 25 μg/ml, 100% = ristocetin treatment
# Method: The effect of Y1 (scFv) on aggregation of platelet-rich-plasma (PRP) was tested at various concentrations of Y1. PRP was pre-incubated with Y1 scFv, Y17 scFv, or a control sTM-1cFv for 4 min at 37° C. before being exposed to ristocetin, an inducer of platelet agglutination and aggregation. A reversible inhibitory effect was observed when scFv was added to PRP prior to the addition of ristocetin, and it was dose dependent.
# Blood was collected into a tube containing 3.8% sodium citrate. Platelet-rich plasma was prepared by centrifugation at 250×g for 10 minutes.
# For platelet aggregation studies, platelet rich plasma (PRP) and washed platelets were stirred at 500 rpm at 37° C. in whole blood Lumiaggregometer (Chronolog, Havertown, Pa.). The difference in light transmission through the platelet suspension and suspending medium was taken as 100% aggregation. The effect of Y1 on platelet aggregation was evaluated by addition of different concentration of Y1 before the addition of agonist, and the effect was recorded for four minutes.
# Heparin - BSA = experiment: Western blot with Y1 on SDS-PAGE reducing gels, heparin-BSA after aryl-sulfatase; type: binding; details: 18 hr at 22° C.
# Excerpt: Y1 ligand was further characterized using enzymatic treatments with proteases, glycanases, and […]; Western blotting with Y1, anti-CD42 antibodies, anti-CD162 antibodies and 181, immunoprecipitation using Y1 and anti-CD162 antibodies; FACS analysis using Y1 anti-CD162 antibodies; and sequencing.
# The table below summarizes the biochemical experiments preformed to characterize and localize the Y1 binding site on KG-1 cells.
# The nitrocellulose membrane was blocked using 5% skim milk for one hour at room temperature. The membrane was then washed 3 times for 5 minutes each with 0.05% Tween 20 in PBS at room temperature. The membrane was incubated with 5 μg/ml Y1-biotin (or 181-biotin) in 2% skim milk in PBS for one hour at room temperature. The membrane was then washed 3 times for 5 minutes each with cold 0.05% Tween 20 in PBS in the cold room (about 4 to about 10° C.). The membrane was then incubated in the cold room with a 1:1000 dilution of SAV-HRP (streptavidin-HRP) (at a final concentration of […]) in 2% skim milk, 0.05% Tween. The dilution was carried out at room temperature (about 25° C.), then the diluted SAV-HRP was cooled on ice for 10-15 minutes before use. The incubation was carried out for 1 hour with gentle shaking. After the incubation with SAV-HRP, the membrane was washed, as above. […]
molecule,measurement,setting,value
"Y1 scFv: fully human scFv clone binding platelets and AML cells; SEQ ID NO:25, heavy chain CDR3 SEQ ID NO:8 (protein, listed as Homo sapiens) scFv: MKYLLPTAAAGLLLLAAQPAMAEVQLVESGGGVVRPGGSLRLSCAASGFTFDDYGMSWVRQAPGKGLEWVSGINWNGGSTGYADSVKGRFTISRDNAKNSLYLQMNSLRAEDTAVYYCARMRAPVIWGQGTLVTVSRGGGGSGGGGSGGGGSSELTQDPAVSVALGQTVRITCQGDSLRSYYASWYQQKPGQAPVLVIYGKNNRPSGIPDRFSGSSSGNTASLTITGAQAEDEADYYCNSRDSSGNHVVFGGGTKLTVLGAAAEQKLISEEDLNGAA",more molecules needed for a level of detection similar to IgG-Y1,Jurkat cells,approximately 10^3 fold
same,% aggregation,[1],87%
same,Reactivity with Y1,Heparin - BSA,Binds to
